Measurements as given in patent US20240400640A1 (published 2024).

Target: IL-21-Fc
Test: SPR

- Kd: 1.68 pM
B1: hIL-21 receptor (receptor)
chain: not shown
